Reference: paper PMC10778600, “Conserved Residues Lys64 and Glu78 at the Subunit Surface of Tau Glutathione Transferase in Rice Affect Structure and Enzymatic Properties” (International Journal of Molecular Sciences, 2023)
Values belong to the molecule of their own block, whether it stands above or below them.

Key:
[1] = target: OsGSTU17 mutant K64A (Oryza sativa); assay: native gel or EMSA; native PAGE of the purified proteins, gel pre-run 30-60 min, 100-200 V, 0-4 °C; BSA and ovalbumin as markers; molecular weight compared with SDS-PAGE of the denatured proteins
[2] = target: wild-type OsGSTU17 (rice tau class glutathione transferase) (Oryza sativa); assay: as above
[3] = target: OsGSTU17 mutant E78A (Oryza sativa); assay: as above
[4] = substrate: O=[N+]([O-])c1ccc(Cl)c2nonc12; assay: steady-state kinetics, non-linear regression; format: biochemical, Oryza sativa; conditions: GSH fixed at 1.0 mM; NBD-Cl 0.2 to 1.0 mM
Excerpt: steady-state kinetics, non-linear regression on OsGSTU17

stoichiometry N [1]: 2
Molecule: OsGSTU17 mutant K64A (enzyme)

stoichiometry N [2]: 2
Molecule: wild-type OsGSTU17 (rice tau class glutathione transferase) (enzyme)

stoichiometry N [3]: 2
Molecule: OsGSTU17 mutant E78A (enzyme)

B1: OsGSTU17 (Oryza sativa Japonica Group; K64A) (protein)
chain: MAADKGVKVFGMWASPMAIRVEWALRLKGVDYEYVDEDLANKSEALLRHNPVTKKVPVLVHDGAPLAESTVIVEYIDEAWKHGYPIMPSDPFDRAQARFWARFAEEKCNAALYPIFMTTGEEQRKLVHEAQQCLKTLETALEGKKFFGGDAFGYLDIVTGWFAYWLPVIEEACGVEVVTDEALPLMKAWFDRVLAVDAVKAVLPPRDKLVALNKARREQILSA
Km [4]: 507 ± 25 µM
Vmax [4]: 0.287 µM/min/mg
kcat [4]: 0.217 s⁻¹
kcat/Km [4]: 428 M⁻¹ s⁻¹
